Reference: US20040110688

biological target: factor VIIIa (UniProt P00451)
Sequence (P00451 other isoform, or with tags, fused parts or gaps): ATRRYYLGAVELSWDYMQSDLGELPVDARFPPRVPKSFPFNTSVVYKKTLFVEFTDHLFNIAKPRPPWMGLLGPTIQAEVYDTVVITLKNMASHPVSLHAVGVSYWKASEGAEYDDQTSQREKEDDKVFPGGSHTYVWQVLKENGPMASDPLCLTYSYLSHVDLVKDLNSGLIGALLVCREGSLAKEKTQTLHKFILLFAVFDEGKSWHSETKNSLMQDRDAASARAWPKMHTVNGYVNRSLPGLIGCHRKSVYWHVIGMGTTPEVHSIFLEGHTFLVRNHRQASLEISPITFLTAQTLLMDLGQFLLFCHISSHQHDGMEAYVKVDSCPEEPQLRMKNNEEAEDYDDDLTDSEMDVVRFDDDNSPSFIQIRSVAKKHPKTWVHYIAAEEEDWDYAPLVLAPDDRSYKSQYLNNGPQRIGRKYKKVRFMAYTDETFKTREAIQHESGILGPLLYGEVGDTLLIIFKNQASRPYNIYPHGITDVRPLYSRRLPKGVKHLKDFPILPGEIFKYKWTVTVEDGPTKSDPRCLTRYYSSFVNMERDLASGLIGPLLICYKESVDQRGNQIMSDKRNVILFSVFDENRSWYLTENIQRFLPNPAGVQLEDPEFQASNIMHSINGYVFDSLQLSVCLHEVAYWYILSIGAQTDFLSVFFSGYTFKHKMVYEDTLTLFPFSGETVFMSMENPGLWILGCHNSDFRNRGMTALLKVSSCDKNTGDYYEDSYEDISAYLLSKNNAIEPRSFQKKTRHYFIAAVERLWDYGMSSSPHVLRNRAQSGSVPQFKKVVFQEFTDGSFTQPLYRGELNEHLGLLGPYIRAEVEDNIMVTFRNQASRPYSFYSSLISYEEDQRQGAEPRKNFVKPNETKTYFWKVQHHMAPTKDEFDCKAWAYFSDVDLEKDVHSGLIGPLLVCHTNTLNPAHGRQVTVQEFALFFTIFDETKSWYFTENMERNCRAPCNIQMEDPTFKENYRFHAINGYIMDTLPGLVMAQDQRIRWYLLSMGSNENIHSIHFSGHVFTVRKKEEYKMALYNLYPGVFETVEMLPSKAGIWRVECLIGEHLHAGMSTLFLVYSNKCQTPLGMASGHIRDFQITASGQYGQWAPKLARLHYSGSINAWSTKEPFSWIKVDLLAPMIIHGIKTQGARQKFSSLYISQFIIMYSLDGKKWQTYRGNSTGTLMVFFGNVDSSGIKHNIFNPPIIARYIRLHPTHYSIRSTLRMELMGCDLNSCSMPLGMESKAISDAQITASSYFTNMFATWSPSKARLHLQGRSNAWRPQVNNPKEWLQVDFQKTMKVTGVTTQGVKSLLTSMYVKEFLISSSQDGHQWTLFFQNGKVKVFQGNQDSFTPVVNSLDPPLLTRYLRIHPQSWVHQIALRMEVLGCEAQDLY

Substance	X-activation rate, PL-minus system (14 nM VIIIa, 400 nM X)	X-activation rate, PL-plus system (70 pM VIIIa, 0.5 nM IXa, 15 nM X)	rate of factor X activation with phospholipid, factor VIIIa increased from 70 pM to 14 nM
IXaD332Y	NM	NM	IXaD332Y ~4.1 nM/min
IXaL330I	0.94 nM/min	0.95 nM/min	–
IXaL337I	NM	NM	IXaL337I ~3.2 nM/min
IXaPCEGF1	2.71 nM/min	NM	–
IXaQ50P	2.81 nM/min	NM	–
IXaR333L	NM	NM	IXaP333L ~2.7 nM/min
IXaR333Q	NM	NM	IXaR333Q ~2.4 nM/min
IXaR338Q	2.22 nM/min	2.53 nM/min	–
IXaT335A	1.83 nM/min	1.92 nM/min	–
